The record followed here is the RNAGym collection of RNA variant scans (doi:10.1093/molbev/msab373).

Sequences and labels used below:
B1: Azoarcus group I ribozyme (parent)
chain: GUGCCUUGCGCCGGGAAACCACGCAAGGGAUGGUGUCAAAUUCGGCGAAACCUAAGCGCCCGCCCGGGCGUAUGGCAACGCCGAGCCAAGCUUCGGCGCCUGCGCCGAUGAAGGUGUAGAGACUAGACGGCACCCACCUAAGGCAAACGCUAUGGUGAAGGCAUAGUCCAGGGAGUGGCGAAAGUCACACAAACCGG

In this series the parent is B1. The series is described as follows: reverse-splicing fitness (ratio to wild type); higher = more active; in vitro selection; Mg2+ level not given. Put shortly:
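An in vitro group I ribozyme library with randomized positions was T7-transcribed and gel-purified. In triplicate, 10 pmol RNA in EPPS pH 7.5 was reacted with 50 pmoles of a 30-nt RNA substrate for 1 h at 37 °C across several added MgCl2 levels (1–48 mM), then stopped with EDTA. Products were reverse transcribed from a substrate-complementary primer, PCR-amplified and sequenced (HiSeq 4000). Fitness is a variant's read proportion after selection over that before, normalised to wild type.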
As to A120U A145U C169A U176A, the reverse-splicing fitness was determined as 0.00339.
The result for A120U A145U C169A U176G reads 0.00158.
For A145C C150U C169U U176G, the reverse-splicing fitness came out at 0.00838.
Regarding A145C C150U C169U U176A, the reverse-splicing fitness worked out at 0.0513.
The result for A145C C150U C169U U176C reads 0.0741.
The result for A145G C150G C169A U176A reads 0.0133; that for A145G C150G C169A U176C, 0.0194.
The result for A145G C150G C169A U176G reads 0.00779; that for A120U A145U U176C, 0.642; that for A120U A145U U176A, 0.681.
A120U A145U U176G: the reverse-splicing fitness is 0.328.
For A145C C169A, the reverse-splicing fitness came to 0.167.
To A145C C169G belongs 0.26.
To A145C C169U belongs 0.351; to A145G C150U C169G U176C, 0.11.
The result for A145G C150U C169G U176A reads 0.0615; that for A145G C150U C169G U176G, 0.00685; that for A120U A145U C150A C169G U176C, 0.0122.
For A120U A145U C150A C169G U176G, the reverse-splicing fitness was 0.00216.
The result for A120U A145U C150A C169G U176A reads 0.00797; that for A120U A145U C150U C169U U176C, 0.0952.
On to A120U A145U C150U C169U U176G, for which the reverse-splicing fitness is 0.00903.
To A120U A145U C150U C169U U176A belongs 0.059; to A120U C150G C169G U176G, 0.00248.
The result for A120U C150G C169G U176C reads 0.0024.
In the case of A120U C150G C169G U176A, the reverse-splicing fitness turned out to be 0.00487.
The result for A145G C150G U176G reads 0.0658; that for A145G C150G U176A, 0.256; that for A145G C150G U176C, 0.371.
To A145U C150A U176C belongs 0.363.
The result for A145U C150A U176G reads 0.177.
Turning to A145U C150A U176A, the reverse-splicing fitness is 0.4.
The result for A145U C150U C169U U176C reads 0.141; that for A145U C150U C169U U176A, 0.0998; that for A145U C150U C169U U176G, 0.0111.
To A120U A145U C169U U176A belongs 0.0858.
To A120U A145U C169U U176C belongs 0.133; to A120U A145U C169U U176G, 0.0134; to A120U C150G C169U U176C, 0.0154.
Take A120U C150G C169U U176A: the reverse-splicing fitness is 0.00472.
As to A120U C150G C169U U176G, the reverse-splicing fitness came out at 0.00276.
The result for A145C C150G U176G reads 0.114; that for A145C C150G U176A, 0.364.
Regarding A145C C150G U176C, the reverse-splicing fitness was found to be 0.388.
To A120U C150U C169A U176A belongs 0.0051; to A120U C150U C169A U176G, 0.00183.
The result for A120U C150U C169A U176C reads 0.00368; that for A145G C150G C169U U176G, 0.00808; that for A145G C150G C169U U176C, 0.0454.
To A145G C150G C169U U176A belongs 0.0192; to A145C C150U C169G U176C, 0.0444.
For the variant A145C C150U C169G U176G, the reverse-splicing fitness was 0.00658.
For A145C C150U C169G U176A, the reverse-splicing fitness was determined as 0.0403.
To A120U A145U C150G U176C belongs 0.148.
The result for A120U A145U C150G U176A reads 0.122; that for A120U A145U C150G U176G, 0.018.
The result for A145U C150A C169G U176G reads 0.00588; that for A145U C150A C169G U176A, 0.0176; that for A145U C150A C169G U176C, 0.0285.
In the case of A145C C150A C169G U176C, the reverse-splicing fitness was 0.0203.
To A145C C150A C169G U176G belongs 0.00531; to A145C C150A C169G U176A, 0.0271.
The result for A120U C150G U176G reads 0.0108; that for A120U C150G U176A, 0.0739.
To A120U C150G U176C belongs 0.115.
A145C C150A U176A: the reverse-splicing fitness was determined as 0.217.
To A145C C150A U176C belongs 0.206; to A145C C150A U176G, 0.14; to A145C C150G C169A U176A, 0.00984.
To A145C C150G C169A U176C belongs 0.0118; to A145C C150G C169A U176G, 0.00491; to A120U A145G U176G, 0.342.
The result for A120U A145G U176C reads 0.685; that for A120U A145G U176A, 0.704.
For the variant A120U A145U C169G U176G, the reverse-splicing fitness stood at 0.00322.
In the case of A120U A145U C169G U176A, the reverse-splicing fitness was 0.0356.
For the variant A120U A145U C169G U176C, the reverse-splicing fitness is 0.0807.
Turning to A120U A145G C169U, the reverse-splicing fitness was found to be 0.286.
For A120U A145G C169A, the reverse-splicing fitness is 0.0154.
To A120U A145G C169G belongs 0.255; to A145G U176G, 0.325.
The result for A145G U176C reads 0.91; that for A145G U176A, 0.863.
The result for A145G C150A C169A U176C reads 0.031.
